Source: publication PMC8081927

Molecular target: Aβ1-42 fibrils (UniProt P05067)
Assay: flow cytometry on beads; Aβ fibrils (1% biotinylated, 1 μM) immobilised on streptavidin Dynabeads, blocked with 10% milk; antibody dilutions in PBSB with 1% milk, 3 h, 25 °C; detected with goat anti-human Fc AF647; apparent affinity (EC50)

EC50: 9 nM
B1: crenezumab (variable domains grafted onto an IgG1 scaffold with a human Fc fragment) (antibody, V domains shown)
VH: EVQLVESGGGLVQPGGSLRLSCAASGFTFSSYGMSWVRQAPGKGLELVASINSNGGSTYYPDSVKGRFTISRDNAKNSLYLQMNSLRAEDTAVYYCASGDYWGQGTTVTVSS
VL: DIVMTQSPLSLPVTPGEPASISCRSSQSLVYSNGDTYLHWYLQKPGQSPQLLIYKVSNRFSGVPDRFSGSGSGTDFTLKISRVEAEDVGVYYCSQSTHVPWTFGQGTKVEIK
